One may read the stoichiometry N as the number of molecules, sites or subunits per partner or assembly.

Positions count from the first letter of the chain named. Where two headings read alike, the source gives them in different places.

From article PMC5959753 (Cell chemical biology, 2018) come the findings set out here.

Series [1] deals with the molecule itself. Put plainly: crystal structure.
Series [2] concerns the molecule itself. Put plainly: crystal structure. This is another data set of the same source.

B1: Neurospora crassa C-S lyase Egt2, wild type (enzyme, UniProt A7UX13 1-473, looked up)
chain: MVATTVELPLQQKADAAQTVTGPLPFGNSLLKEFVLDPAYRNLNHGSFGTIPSAIQQKLRSYQTAAEARPCPFLRYQTPVLLDESRAAVANLLKVPVETVVFVANATMGVNTVLRNIVWSADGKDEILYFDTIYGACGKTIDYVIEDKRGIVSSRCIPLIYPAEDDDVVAAFRDAIKKSREEGKRPRLAVIDVVSSMPGVRFPFEDIVKICKEEEIISCVDGAQGIGMVDLKITETDPDFLISNCHKWLFTPRGCAVFYVPVRNQHLIRSTLPTSHGFVPQVGNRFNPLVPAGNKSAFVSNFEFVGTVDNSPFFCVKDAIKWREEVLGGEERIMEYMTKLAREGGQKVAEILGTRVLENSTGTLIRCAMVNIALPFVVGEDPKAPVKLTEKEEKDVEGLYEIPHEEANMAFKWMYNVLQDEFNTFVPMTFHRRRFWARLSAQVYLEMSDFEWAGKTLKELCERVAKGEYKESA
modifications: PLP covalently bound to K247 (internal aldimine); selenomethionine in the derivative crystals used for the final structure
For the protein B1, the “stoichiometry N” value in “crystal structure [1]” was 2.

B2: Neurospora crassa C-S lyase Egt2 Y134F (enzyme, UniProt A7UX13 1-473, looked up)
chain: B1 chain with Y134F
modifications: PLP covalently bound to K247 (internal aldimine)
Turning to B2, in the series “crystal structure [2]”, the “stoichiometry N” value came out at 2.
